{
  "source": "paper PMC6344880",
  "target": "40S subunits of uS9/S16-R143G, uS9/S16-R143E and uS9/S16-R144 strains (S. cerevisiae)",
  "experiment": "co-sedimentation + cross-linking; formaldehyde cross-linking, whole cell extracts resolved on 10–30% sucrose gradients, Western blot of the 43/48S PIC (40S) fractions for eIF1, eIF2α and uS7, signals normalised to uS7; also in strains carrying the TIF5-G31R allele (Figure 6A), which reversed the accumulation of eIF2",
  "data": [
    {"substance": "eukaryotic initiation factor 1 (eIF1) (from UniProt P32911 1-108) (natural protein)", "values": [
      {"measurement": "fold increase of association against the wild-type strain", "value": "2.5 to 3", "unit": "fold"}
    ]}
  ]
}
